Like-named read-outs stand apart in the source and are kept apart here.
Experiments:
Experiment in all cases: cell-based or functional assay
beta-klotho [1] = biological target: beta-klotho
beta-klotho [2] = biological target: beta-klotho; remark: listed apart in the source
beta-klotho [3] = biological target: beta-klotho; remark: listed apart in the source
beta-klotho [4] = biological target: beta-klotho; remark: listed apart in the source
beta-klotho [5] = biological target: beta-klotho; remark: listed apart in the source

Row | EC50, ELK-luciferase assay (beta-klotho [4]) [nM] | EC50, ELK-luciferase assay (beta-klotho [5]) [nM] | Binder | other results
1 | – | – | wild-type FGF21 (mature, un-PEGylated) (ligand) MHPIPDSSPLLQFGGQVRQRYLYTDDAQQTEAHLEIREDGTVGGAADQSPESLLQLKALKPGVIQILGVKTSRFLCQRPDGALYGSLHFDPEACSFRELLLEDGYNVYQSEAHGLPLHLPGNKSPHRDPAPRGPARFLPLPGLPPAPPEPPGILAPQPPDVGSSDPLSMVGPSQGRSPSYAS | EC50, ELK-luciferase assay (beta-klotho [1]): 0.63 nM; In Vitro Activity EC50, ELK-luciferase assay (beta-klotho [2]): 3 nM; EC50, ELK-luciferase assay (beta-klotho [3]): 3 nM
2 | 0.36 | – | Tethered Molecule of two FGF21 R175C, P171G polypeptides (20 kDa PEG linker) (ligand, Cys 175 of the two chains joined by one 20 kDa PEG bis-maleimide) MHPIPDSSPLLQFGGQVRQRYLYTDDAQQTEAHLEIREDGTVGGAADQSPESLLQLKALKPGVIQILGVKTSRFLCQRPDGALYGSLHFDPEACSFRELLLEDGYNVYQSEAHGLPLHLPGNKSPHRDPAPRGPARFLPLPGLPPAPPEPPGILAPQPPDVGSSDPLSMVGGSQGCSPSYAS | –
3 | – | 64 | FGF21 mutant R77C, P171G, PEGylated at the N-terminus and Cys 77 (2 x 20k) (ligand, 20 kDa PEG on the N-terminus; 20 kDa PEG on Cys 77) MHPIPDSSPLLQFGGQVRQRYLYTDDAQQTEAHLEIREDGTVGGAADQSPESLLQLKALKPGVIQILGVKTSRFLCQCPDGALYGSLHFDPEACSFRELLLEDGYNVYQSEAHGLPLHLPGNKSPHRDPAPRGPARFLPLPGLPPAPPEPPGILAPQPPDVGSSDPLSMVGGSQGRSPSYAS | –
4 | – | 65 | FGF21 mutant H125C, P171G, PEGylated at the N-terminus (10k) and Cys 125 (20k) (ligand, 10 kDa PEG on the N-terminus; 20 kDa PEG on Cys 125) MHPIPDSSPLLQFGGQVRQRYLYTDDAQQTEAHLEIREDGTVGGAADQSPESLLQLKALKPGVIQILGVKTSRFLCQRPDGALYGSLHFDPEACSFRELLLEDGYNVYQSEAHGLPLHLPGNKSPCRDPAPRGPARFLPLPGLPPAPPEPPGILAPQPPDVGSSDPLSMVGGSQGRSPSYAS | –
5 | – | 30 | FGF21 mutant H125C, P171G, PEGylated at the N-terminus (5k) and Cys 125 (20k) (ligand, 5 kDa PEG on the N-terminus; 20 kDa PEG on Cys 125) MHPIPDSSPLLQFGGQVRQRYLYTDDAQQTEAHLEIREDGTVGGAADQSPESLLQLKALKPGVIQILGVKTSRFLCQRPDGALYGSLHFDPEACSFRELLLEDGYNVYQSEAHGLPLHLPGNKSPCRDPAPRGPARFLPLPGLPPAPPEPPGILAPQPPDVGSSDPLSMVGGSQGRSPSYAS | –
6 | – | 152 | FGF21 mutant H125C, P171G, PEGylated at the N-terminus and Cys 125 (2 x 20k) (ligand, 20 kDa PEG on the N-terminus; 20 kDa PEG on Cys 125) MHPIPDSSPLLQFGGQVRQRYLYTDDAQQTEAHLEIREDGTVGGAADQSPESLLQLKALKPGVIQILGVKTSRFLCQRPDGALYGSLHFDPEACSFRELLLEDGYNVYQSEAHGLPLHLPGNKSPCRDPAPRGPARFLPLPGLPPAPPEPPGILAPQPPDVGSSDPLSMVGGSQGRSPSYAS | –
7 | 0.47 | – | Tethered Molecule of two FGF21 G170C polypeptides (20 kDa PEG linker) (ligand, Cys 170 of the two chains joined by one 20 kDa PEG bis-maleimide) MHPIPDSSPLLQFGGQVRQRYLYTDDAQQTEAHLEIREDGTVGGAADQSPESLLQLKALKPGVIQILGVKTSRFLCQRPDGALYGSLHFDPEACSFRELLLEDGYNVYQSEAHGLPLHLPGNKSPHRDPAPRGPARFLPLPGLPPAPPEPPGILAPQPPDVGSSDPLSMVCPSQGRSPSYAS | –
8 | 0.2 | – | Tethered Molecule of two FGF21 E91C, P171G polypeptides (20 kDa PEG linker) (ligand, Cys 91 of the two chains joined by one 20 kDa PEG bis-maleimide) MHPIPDSSPLLQFGGQVRQRYLYTDDAQQTEAHLEIREDGTVGGAADQSPESLLQLKALKPGVIQILGVKTSRFLCQRPDGALYGSLHFDPCACSFRELLLEDGYNVYQSEAHGLPLHLPGNKSPHRDPAPRGPARFLPLPGLPPAPPEPPGILAPQPPDVGSSDPLSMVGGSQGRSPSYAS | –
9 | 0.25 | – | Tethered Molecule of two FGF21 R77C, P171G polypeptides (20 kDa PEG linker) (ligand, Cys 77 of the two chains joined by one 20 kDa PEG bis-maleimide) MHPIPDSSPLLQFGGQVRQRYLYTDDAQQTEAHLEIREDGTVGGAADQSPESLLQLKALKPGVIQILGVKTSRFLCQCPDGALYGSLHFDPEACSFRELLLEDGYNVYQSEAHGLPLHLPGNKSPHRDPAPRGPARFLPLPGLPPAPPEPPGILAPQPPDVGSSDPLSMVGGSQGRSPSYAS | –
10 | 0.21 | – | Tethered Molecule of two FGF21 H125C, P171G polypeptides (20 kDa PEG linker) (ligand, Cys 125 of the two chains joined by one 20 kDa PEG bis-maleimide) MHPIPDSSPLLQFGGQVRQRYLYTDDAQQTEAHLEIREDGTVGGAADQSPESLLQLKALKPGVIQILGVKTSRFLCQRPDGALYGSLHFDPEACSFRELLLEDGYNVYQSEAHGLPLHLPGNKSPCRDPAPRGPARFLPLPGLPPAPPEPPGILAPQPPDVGSSDPLSMVGGSQGRSPSYAS | –
11 | 0.36 | – | Tethered Molecule of two FGF21 E37C, P171G polypeptides (20 kDa PEG linker) (ligand, Cys 37 of the two chains joined by one 20 kDa PEG bis-maleimide) MHPIPDSSPLLQFGGQVRQRYLYTDDAQQTEAHLEIRCDGTVGGAADQSPESLLQLKALKPGVIQILGVKTSRFLCQRPDGALYGSLHFDPEACSFRELLLEDGYNVYQSEAHGLPLHLPGNKSPHRDPAPRGPARFLPLPGLPPAPPEPPGILAPQPPDVGSSDPLSMVGGSQGRSPSYAS | –
12 | 0.51 | – | Tethered Molecule of two FGF21 G120C, P171G polypeptides (20 kDa PEG linker) (ligand, Cys 120 of the two chains joined by one 20 kDa PEG bis-maleimide) MHPIPDSSPLLQFGGQVRQRYLYTDDAQQTEAHLEIREDGTVGGAADQSPESLLQLKALKPGVIQILGVKTSRFLCQRPDGALYGSLHFDPEACSFRELLLEDGYNVYQSEAHGLPLHLPCNKSPHRDPAPRGPARFLPLPGLPPAPPEPPGILAPQPPDVGSSDPLSMVGGSQGRSPSYAS | –
